Target: M-L3-IL12 (masked mouse IL-12 whose linker contains 3 repeats of LSGRSDNH) (UniProt Q60837)
Sequence (Q60837 whole entry, looked up): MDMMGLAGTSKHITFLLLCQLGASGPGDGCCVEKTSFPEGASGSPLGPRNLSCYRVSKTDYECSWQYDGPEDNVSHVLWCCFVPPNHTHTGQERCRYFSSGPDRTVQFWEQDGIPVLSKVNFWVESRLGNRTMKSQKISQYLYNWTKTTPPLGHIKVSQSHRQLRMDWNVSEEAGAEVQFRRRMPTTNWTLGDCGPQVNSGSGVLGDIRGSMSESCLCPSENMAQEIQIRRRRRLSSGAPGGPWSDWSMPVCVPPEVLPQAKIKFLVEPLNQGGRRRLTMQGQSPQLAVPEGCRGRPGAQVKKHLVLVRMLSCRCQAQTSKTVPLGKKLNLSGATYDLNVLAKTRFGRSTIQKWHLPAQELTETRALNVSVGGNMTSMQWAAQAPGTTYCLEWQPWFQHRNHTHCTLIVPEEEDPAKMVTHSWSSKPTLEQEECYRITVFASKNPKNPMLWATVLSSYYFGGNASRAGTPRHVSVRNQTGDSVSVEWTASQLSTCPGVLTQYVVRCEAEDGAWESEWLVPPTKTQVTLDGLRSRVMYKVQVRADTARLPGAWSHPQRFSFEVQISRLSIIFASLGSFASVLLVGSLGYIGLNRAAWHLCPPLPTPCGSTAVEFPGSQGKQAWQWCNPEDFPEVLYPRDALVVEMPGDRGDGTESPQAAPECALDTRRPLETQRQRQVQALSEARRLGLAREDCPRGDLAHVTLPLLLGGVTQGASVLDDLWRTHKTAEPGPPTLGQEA

In the case of “recombinant human urokinase plasminogen activator”, the “in vitro cleavage, 30 min at 37° C., SDS-PAGE” value is reported as “Decrease of molecular weight from ˜105 kDa to ˜60 kDa indicates proteolytic cleavage of IL12Rβ1-VP-IL12 and IL12Rβ1-LS-IL12”.

Reference: patent US20240228586
